Source: US20240043537A1 (MacroGenics, published 2024)

Key:
soluble human CD3 [1] = target: T1, soluble human CD3 (human, UniProt P07766 23-126); assay: SPR (BIAcore), diabody over immobilized soluble human CD3, 1:1 fit
Method: (§1) The ability of the CD123-binding diabodies: CD123-WT, CD123-M1, CD123-M2 and CD123-M18 to bind to human CD3 and CD123 was also evaluated using BIAcore®. […] Table 14 presents the calculated kₐ, kd and KD from these studies.

cyno CD3 = cyno CD3 (cynomolgus, UniProt Q95LI5 22-117); assay: SPR (BIAcore), diabody 6.25-400 nM over immobilized cyno CD3, 1:1 Langmuir fit
Sequence of cyno CD3 (Q95LI5 22-117): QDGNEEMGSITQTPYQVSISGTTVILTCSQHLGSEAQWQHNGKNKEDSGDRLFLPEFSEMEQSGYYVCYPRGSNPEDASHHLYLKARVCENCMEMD
Method: (§2) In additional studies the ability of CD123-binding diabodies: CD123-WT, CD123-M13, CD123-M17 and CD123-M19 to bind to human CD3 and cynomolgus CD3 was also evaluated using BIAcore®. […] Table 15B presents the calculated kₐ, kd and KD.

soluble human CD3 [2] = target: T1, soluble human CD3; assay: SPR (BIAcore), diabody 6.25-400 nM over immobilized human CD3, 1:1 Langmuir fit
Method: as §2

[3] = target: T2, soluble human CD123, His-tagged (human, UniProt P26951 19-305); assay: SPR (BIAcore), diabody over His-tagged CD123 captured on anti-PentaHis, 1:1 fit
T2 construct: Captured on an anti-PentaHis surface; also called soluble CD123; not shown: His tag
T2 sequence (looked up): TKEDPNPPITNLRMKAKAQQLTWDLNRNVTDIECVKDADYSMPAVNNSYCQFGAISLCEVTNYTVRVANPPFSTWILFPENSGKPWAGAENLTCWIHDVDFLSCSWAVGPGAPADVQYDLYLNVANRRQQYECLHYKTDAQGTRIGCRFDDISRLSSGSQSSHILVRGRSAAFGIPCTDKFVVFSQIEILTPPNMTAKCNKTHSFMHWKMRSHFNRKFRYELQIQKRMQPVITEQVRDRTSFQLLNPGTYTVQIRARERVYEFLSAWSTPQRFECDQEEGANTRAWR
Method: as §1

CD8 on CD8+ T-cells = target: T3, CD8 on CD8+ T-cells (UniProt P01732 22-235; P10966 22-210); assay: flow cytometry on CD8+ T-cells, MFI (geo mean) against concentration (nM); CD123-WT is the diabody comparator without a CD8-Binding Domain
T3 construct: whole, on cells; also called CD8 expressing CD8+ T-cells
T3 sequence (P01732 22-235, chain 1 of 2): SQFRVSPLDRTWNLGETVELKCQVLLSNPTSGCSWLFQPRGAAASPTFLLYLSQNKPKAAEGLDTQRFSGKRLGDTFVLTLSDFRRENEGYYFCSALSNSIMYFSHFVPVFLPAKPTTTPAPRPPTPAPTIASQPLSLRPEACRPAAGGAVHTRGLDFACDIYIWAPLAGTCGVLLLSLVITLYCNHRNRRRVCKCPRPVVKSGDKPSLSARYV
T3 sequence (P10966 22-210, chain 2 of 2): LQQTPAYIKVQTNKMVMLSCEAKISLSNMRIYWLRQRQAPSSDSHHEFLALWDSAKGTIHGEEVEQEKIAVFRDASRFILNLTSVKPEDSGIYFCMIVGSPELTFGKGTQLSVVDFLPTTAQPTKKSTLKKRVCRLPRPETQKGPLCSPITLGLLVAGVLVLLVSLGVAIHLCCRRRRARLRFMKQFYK

CD123 on MOLM-13 cells = target: T4, CD123 on MOLM-13 cells (UniProt P26951 19-378, limits assumed); assay: Flow cytometry on MOLM-13 cells; detection with biotinylated anti-E/K-coil antibody and streptavidin-PE
T4 construct: whole, on cells; also called CD123-expressing MOLM-13 cells
Method: FIG. 9A-9B show the ability of DART-B-type diabodies to bind to Disease Antigens. […] Binding was detected using biotinylated antibody specific for the diabodies' E/K coils and streptavidin-phycoerythrin (PE).
The ability of such diabodies to bind to their respective Disease Antigen (i.e., CD123 or 5T4) on the surface of MOLM-13 leukemia (CD123) or A-498 kidney carcinoma (5T4) target cancer cells was assessed using FACS. Briefly, cells were incubated with the diabody molecules (in FACS buffer containing 10% human AB serum) in microtiter plates. The cells were washed and incubated with biotin-conjugated mouse anti-EK-coil antibody that recognizes the E-coil/K-coil (EK) Heterodimer-Promoting Domain of the diabodies mixed with streptavidin-phycoerythrin.

T1 sequence (P07766 23-126): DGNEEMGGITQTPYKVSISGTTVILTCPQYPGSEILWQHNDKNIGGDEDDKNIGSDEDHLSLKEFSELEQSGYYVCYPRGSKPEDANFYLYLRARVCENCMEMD

B1: CD123-WT (bispecific antibody)
chain 1: DFVMTQSPDSLAVSLGERVTMSCKSSQSLLNSGNQKNYLTWYQQKPGQPPKLLIYWASTRESGVPDRFSGSGSGTDFTLTISSLQAEDVAVYYCQNDYSYPYTFGQGTKLEIKGGGSGGGGEVQLVESGGGLVQPGGSLRLSCAASGFTFSTYAMNWVRQAPGKGLEWVGRIRSKYNNYATYYADSVKDRFTISRDDSKNSLYLQMNSLKTEDTAVYYCVRHGNFGNSYVSWFAYWGQGTLVTVSSGGCGGGEVAALEKEVAALEKEVAALEKEVAALEKGGGDKTHTCPPCPAPEAAGGPSVFLFPPKPKDTLMISRTPEVTCVVVDVSHEDPEVKFNWYVDGVEVHNAKTKPREEQYNSTYRVVSVLTVLHQDWLNGKEYKCKVSNKALPAPIEKTISKAKGQPREPQVYTLPPSREEMTKNQVSLWCLVKGFYPSDIAVEWESNGQPENNYKTTPPVLDSDGSFFLYSKLTVDKSRWQQGNVFSCSVMHEALHNHYTQKSLSLSPGK
chain 2: QAVVTQEPSLTVSPGGTVTLTCRSSTGAVTTSNYANWVQQKPGQAPRGLIGGTNKRAPWTPARFSGSLLGGKAALTITGAQAEDEADYYCALWYSNLWVFGGGTKLTVLGGGGSGGGGEVQLVQSGAELKKPGASVKVSCKASGYTFTDYYMKWVRQAPGQGLEWIGDIIPSNGATFYNQKFKGRVTITVDKSTSTAYMELSSLRSEDTAVYYCARSHLLRASWFAYWGQGTLVTVSSGGCGGGKVAALKEKVAALKEKVAALKEKVAALKE
chain 3: not shown
notes: Three-chain diabody with Fc; also called CD123 x CD3 mAb 1 DART-B-type diabody
B1 was tested. Which Kd (soluble human CD3 [1]) did it give?
Its Kd is 67 nM.

And the Kd (cyno CD3)?
Its Kd is 39 nM.

And the Kd (soluble human CD3 [2])?
The Kd was 52 nM.

And the Kd [3]?
Its Kd is 2 nM.

Does B1 bind (CD8 on CD8+ T-cells)?
Result: no binding (tested: 100 nM)

B2: CD123-M13 (bispecific antibody)
chain 1: DFVMTQSPDSLAVSLGERVTMSCKSSQSLLNSGNQKNYLTWYQQKPGQPPKLLIYWASTRESGVPDRFSGSGSGTDFTLTISSLQAEDVAVYYCQNDYSYPYTFGQGTKLEIKGGGSGGGGEVQLVESGGGLVQPGGSLRLSCAASGFTFSTYAMNWVRQAPGKGLEWVGRIRSKYNNYATYYADSVKDRFTISRDDSKNSLYLQMNSLKTEDTAVYYCVRHGNFGNSYVSWFAEWGQGTLVTVSSGGCGGGEVAALEKEVAALEKEVAALEKEVAALEKGGGDKTHTCPPCPAPEAAGGPSVFLFPPKPKDTLMISRTPEVTCVVVDVSHEDPEVKFNWYVDGVEVHNAKTKPREEQYNSTYRVVSVLTVLHQDWLNGKEYKCKVSNKALPAPIEKTISKAKGQPREPQVYTLPPSREEMTKNQVSLWCLVKGFYPSDIAVEWESNGQPENNYKTTPPVLDSDGSFFLYSKLTVDKSRWQQGNVFSCSVMHEALHNHYTQKSLSLSPGK
chain 2: QAVVTQEPSLTVSPGGTVTLTCRSSTGAVTTSNYANWVQQKPGQAPRGLIGGTNKRAPWTPARFSGSLLGGKAALTITGAQAEDEADYYCALWYSNLWVFGGGTKLTVLGGGGSGGGGEVQLVQSGAELKKPGASVKVSCKASGYTFTDYYMKWVRQAPGQGLEWIGDIIPSNGATFYNQKFKGRVTITVDKSTSTAYMELSSLRSEDTAVYYCARSHLLRASWFAYWGQGTLVTVSSGGCGGGKVAALKEKVAALKEKVAALKEKVAALKE
chain 3: not shown
notes: Three-chain diabody with Fc; also called CD123 x CD3 mAb 1 M13 DART-B-type diabody
What does the source list for B2?
Kd (cyno CD3): 580 nM; Kd (soluble human CD3 [2]): 458 nM

B3: CD123-M19 (bispecific antibody)
chain 1: DFVMTQSPDSLAVSLGERVTMSCKSSQSLLNSGNQKNYLTWYQQKPGQPPKLLIYWASTRESGVPDRFSGSGSGTDFTLTISSLQAEDVAVYYCQNDYSYPYTFGQGTKLEIKGGGSGGGGEVQLVESGGGLVQPGGSLRLSCAASGFTFSTYAMNWVRQAPGKGLEWVGRIRSKYNNYATYYADSVKDRFTISRDDSKNSLYLQMNSLKTEDTAVYYCVRHKNIGNSYVSWFAYWGQGTLVTVSSGGCGGGEVAALEKEVAALEKEVAALEKEVAALEKGGGDKTHTCPPCPAPEAAGGPSVFLFPPKPKDTLMISRTPEVTCVVVDVSHEDPEVKFNWYVDGVEVHNAKTKPREEQYNSTYRVVSVLTVLHQDWLNGKEYKCKVSNKALPAPIEKTISKAKGQPREPQVYTLPPSREEMTKNQVSLWCLVKGFYPSDIAVEWESNGQPENNYKTTPPVLDSDGSFFLYSKLTVDKSRWQQGNVFSCSVMHEALHNHYTQKSLSLSPGK
chain 2: QAVVTQEPSLTVSPGGTVTLTCRSSTGAVTTSNYANWVQQKPGQAPRGLIGGTNKRAPWTPARFSGSLLGGKAALTITGAQAEDEADYYCALWYSNLWVFGGGTKLTVLGGGGSGGGGEVQLVQSGAELKKPGASVKVSCKASGYTFTDYYMKWVRQAPGQGLEWIGDIIPSNGATFYNQKFKGRVTITVDKSTSTAYMELSSLRSEDTAVYYCARSHLLRASWFAYWGQGTLVTVSSGGCGGGKVAALKEKVAALKEKVAALKEKVAALKE
chain 3: not shown
notes: Three-chain diabody with Fc; also called CD123 x CD3 mAb 1 M19 DART-B-type diabody
How did the Kd (cyno CD3) turn out when B3 was run?
The Kd was 227 nM.

And the Kd (soluble human CD3 [2])?
The Kd was 218 nM.

B4: CD123-M17 (bispecific antibody)
chain 1: DFVMTQSPDSLAVSLGERVTMSCKSSQSLLNSGNQKNYLTWYQQKPGQPPKLLIYWASTRESGVPDRFSGSGSGTDFTLTISSLQAEDVAVYYCQNDYSYPYTFGQGTKLEIKGGGSGGGGEVQLVESGGGLVQPGGSLRLSCAASGFTFSTTAMNWVRQAPGKGLEWVGRIRSKYNNYATYYADSVKDRFTISRDDSKNSLYLQMNSLKTEDTAVYYCVRHGNFGNSYVSWFAYWGQGTLVTVSSGGCGGGEVAALEKEVAALEKEVAALEKEVAALEKGGGDKTHTCPPCPAPEAAGGPSVFLFPPKPKDTLMISRTPEVTCVVVDVSHEDPEVKFNWYVDGVEVHNAKTKPREEQYNSTYRVVSVLTVLHQDWLNGKEYKCKVSNKALPAPIEKTISKAKGQPREPQVYTLPPSREEMTKNQVSLWCLVKGFYPSDIAVEWESNGQPENNYKTTPPVLDSDGSFFLYSKLTVDKSRWQQGNVFSCSVMHEALHNHYTQKSLSLSPGK
chain 2: QAVVTQEPSLTVSPGGTVTLTCRSSTGAVTTSNYANWVQQKPGQAPRGLIGGTNKRAPWTPARFSGSLLGGKAALTITGAQAEDEADYYCALWYSNLWVFGGGTKLTVLGGGGSGGGGEVQLVQSGAELKKPGASVKVSCKASGYTFTDYYMKWVRQAPGQGLEWIGDIIPSNGATFYNQKFKGRVTITVDKSTSTAYMELSSLRSEDTAVYYCARSHLLRASWFAYWGQGTLVTVSSGGCGGGKVAALKEKVAALKEKVAALKEKVAALKE
chain 3: not shown
notes: Three-chain diabody with Fc; also called CD123 x CD3 mAb 1 M17 DART-B-type diabody
How did the Kd (cyno CD3) turn out when B4 was run?
Its Kd is 329 nM.

And the Kd (soluble human CD3 [2])?
The Kd was 290 nM.

B5: CD123-M1 (bispecific antibody)
chain 1: DFVMTQSPDSLAVSLGERVTMSCKSSQSLLNSGNQKNYLTWYQQKPGQPPKLLIYWASTRESGVPDRFSGSGSGTDFTLTISSLQAEDVAVYYCQNDYSYPYTFGQGTKLEIKGGGSGGGGEVQLVESGGGLVQPGGSLRLSCAASGFTFSTYAMNWVRQAPGKGLEWVGRIRSKYNNYATYYADSVKDRFTISRDDSKNSLYLQMNSLKTEDTAVYYCVRHGNFGNSYVTWFAYWGQGTLVTVSSGGCGGGEVAALEKEVAALEKEVAALEKEVAALEKGGGDKTHTCPPCPAPEAAGGPSVFLFPPKPKDTLMISRTPEVTCVVVDVSHEDPEVKFNWYVDGVEVHNAKTKPREEQYNSTYRVVSVLTVLHQDWLNGKEYKCKVSNKALPAPIEKTISKAKGQPREPQVYTLPPSREEMTKNQVSLWCLVKGFYPSDIAVEWESNGQPENNYKTTPPVLDSDGSFFLYSKLTVDKSRWQQGNVFSCSVMHEALHNHYTQKSLSLSPGK
chain 2: QAVVTQEPSLTVSPGGTVTLTCRSSTGAVTTSNYANWVQQKPGQAPRGLIGGTNKRAPWTPARFSGSLLGGKAALTITGAQAEDEADYYCALWYSNLWVFGGGTKLTVLGGGGSGGGGEVQLVQSGAELKKPGASVKVSCKASGYTFTDYYMKWVRQAPGQGLEWIGDIIPSNGATFYNQKFKGRVTITVDKSTSTAYMELSSLRSEDTAVYYCARSHLLRASWFAYWGQGTLVTVSSGGCGGGKVAALKEKVAALKEKVAALKEKVAALKE
chain 3: not shown
notes: Three-chain diabody with Fc; also called CD123 x CD3 mAb 1 M1 DART-B-type diabody
Which Kd (soluble human CD3 [1]) does the source give for B5 here?
The Kd was 842 nM.

What about the “EC50 (read off the curve)” value (CD123 on MOLM-13 cells) of the same binder?
Its value is about 2 nM.

What about the Kd [3] of the same binder?
Its Kd is 1.2 nM.
